This series concerns the molecule itself. As to the kind of experiment: crystal structure.

B1: Nep1 from Archaeoglobus fulgidus (enzyme)
chain: MGSAFVFLEASLELIPQKIRGHPAVRADAIRRGKRPEKILLDDSKHHTAMKSLEFREKRGRPDIVHQCLLLLLDSPLRDFEVYVHTLNGEIIWVNRETRLPRNYNRFVGLMEKLFEERRITAGDTTLIEFKDVGLRDIVRGRDVLLFREKGGRFEFSELLDGDVAVCIGAFPHGDFFEETLRELGEFKEVSLGTESYTSLYVTSRVLCEYERVRAHKVG
For the protein B1, the binding result is “binds”.
